In patent publication US20030054411A1, “GPR motifs and uses thereof” (priority 2001, published 2003):

Tests used:
Giα2 [1] = molecular target: T1, Giα2 (Homo sapiens, UniProt P04899); assay: GST fusion protein interaction with purified Giα2; format: binding; conditions: for interaction with Giα2: GST fusion protein ~300 nM, Gα 60-80 nM
T1 construct: made in house; host or cells: Sf9 insect cells
From the text: (A) Bioactivity of cDNA #37 and 53 in yeast strains expressing different Gα subunits. The Gpa1, Giα2Gpa1(1-41), Giα3Gpa1(1-41) and Gα16Gpa1(1-41) yeast strains expressed similar amounts of G-protein as determined by immunoblotting with Gpa1-specific antisera. Each series of experiments include data obtained in the absence of Gα to indicate the signal obtained when the action of Gβγ is not limited by reformation of heterotrimer. Data are presented as the mean±S.E.M of three experiments with duplicate determinations. (B) Interaction of AGS2 and AGS3 with G-proteins. AGS2 and the bioactive AGS3 peptide (74 amino acids) beginning at the first in frame methionine were generated as GST-fusion proteins in bacteria and purified using a glutathione affinity matrix. AGS2 and AGS3 GST fusion proteins were incubated with G-protein subunits (Gα=60-80 nM, Gβγ=40 nM, fusion protein=˜300 nM, total volume=250 ul) for 12 hrs at 4° C. GDP=10 uM. GTPγS=10 uM plus 5 mM MgCl2. Proteins were then adsorbed to glutathione matrix and retained G-protein subunits identified by immunoblotting following gel electrophoresis. Giα2 was generated in Sf9 cells as an amino terminal his6-tagged protein and was detected on membrane transfers using anti-Xpress antisera (Invitrogen). Bovine brain Gβγ was detected on membrane transfers with Gβ antisera. Input refers to 20 ul of the incubation mixture. The results presented are representative of four separate experiments. […] C) Effect of G204A Giα2 substitution and RGS4 on the functionality of AGS proteins. The G204A Giα2 yeast strain and the system used for over expression of RGS4 are described in detail in reference 5. Protein expression was confirmed by immunoblotting. AGS 1 was discovered in a similar screen using a human liver cDNA library (5, 7). WT—wild type strain CY1316/1183 containing Giα2 as described for the original yeast screen. RGS4 was overexpressed in the CY1316/1183 yeast strain. […]
Immunoblotting and G-protein interaction assays. […] Bound proteins were detected by immunoblotting membrane transfers with specific antisera. […]

Giα2 [2] = molecular target: T1, Giα2; assay: GTPγS binding assay, Giα2; format: biochemical; conditions: AGS proteins
Procedure: A and B, the carboxyl region of AGS3 (Pro^463-Ser^650) containing all four GPR repeats was generated as a His-tagged (A) or GST fusion (B) protein for protein interaction assays as described under Examples. All interactions were done in the presence of 10 μM GDP, and the input lanes represent one-tenth of the G-protein used in each interaction assay. A, Giα1 (75 nM) was incubated with 300 nM His-tagged AGS3-GPR in the absence and presence of increasing amounts of the GPR peptide, after which bound Giα was isolated on a nickel affinity matrix, and samples were processed for immunoblotting with Giα antisera. The blot in the upper panel of A was stripped and reprobed with AGS3 antisera to provide internal controls for protein loading. B, Giα2 (75 nM) was incubated with 300 nM AGS3-GPR or GST in the presence and absence of 100 μM GPR consensus peptide, GPR peptide Q15A, or GPR peptide R23F. The immunoblots presented in A and B are representative of three experiments. C and D, GTPγ^35S binding to G-proteins (100 nM) was measured in the absence and presence of peptides as described in the Examples. Data are expressed as the percent of specific binding (˜5 pmol) observed in the absence of peptide and represent the means±S.E. derived from three experiments. The concentration of peptides in D is 10 μM.
GTPγS Binding Assays—GTPγS binding assays were generally conducted as described (39). G-proteins (100 nM) were preincubated for 20 min at 24° C. in the presence and absence of GPR peptides. Binding assays (duplicate determinations) were initiated by addition of 0.5 μM GTPγS (4.0×10^4 dpm/pmol), and incubations (total volume=50 μl) were continued for 30 min at 24° C. Both preincubations and GTPγS binding assays were conducted in binding buffer containing 2 mM MgCl2. Reactions were terminated by rapid filtration through nitrocellulose filters with 4×4-ml washes of stop buffer (50 mM Tris-HCl, 5 mM MgCl2, 1 mM EDTA, pH 7.4, at 4° C.). Radioactivity bound to the filters was determined by liquid scintillation counting. Nonspecific binding was defined by 100 μM […].

T1 sequence (P04899 whole entry, the tested form may be a part): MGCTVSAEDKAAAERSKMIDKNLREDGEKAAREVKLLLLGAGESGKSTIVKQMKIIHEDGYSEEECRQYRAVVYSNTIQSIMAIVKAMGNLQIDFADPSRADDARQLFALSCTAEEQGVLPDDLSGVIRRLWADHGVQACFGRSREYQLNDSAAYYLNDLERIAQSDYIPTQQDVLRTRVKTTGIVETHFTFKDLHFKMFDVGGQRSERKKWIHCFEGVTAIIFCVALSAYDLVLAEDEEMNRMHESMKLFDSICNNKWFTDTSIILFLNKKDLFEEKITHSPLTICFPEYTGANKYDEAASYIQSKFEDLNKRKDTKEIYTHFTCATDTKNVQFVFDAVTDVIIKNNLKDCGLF

## AGS2: Activator of G-protein Signalling 2, protein identical to mouse Tctex1, isolated from NG108-15 cDNA library
Giα2 [1]
  interaction with Giα2: did not interact
Giα2 [2]
  effect on GTPγ35S binding to Giα2: did not alter

B1: AGS3: Activator of G-protein Signalling 3; bioactive 74 amino acid fragment isolated in yeast screen, tested as GST fusion (protein)
chain: MLIKYQSSRIDDQRCPPPDVLPRGPTMPDEDFFSLIQRVQAKRMDEQRVDLAGSPDQEASGLPDPRQQCPPGAS
modifications: left off: a dimerising Fc or GST
Giα2 [1]; GDP 10 uM versus GTPγS 10 uM
  preferred nucleotide-bound conformation of Gα: preferred the GDP bound conformation
Giα2 [1]
  interaction with Giα2: specifically bound
Giα2 [2]
  effect on GTPγ35S binding to Giα2: did not alter
